Measured values: paper PMC8863369, “Heparan sulfate-dependent RAGE oligomerization is indispensable for pathophysiological functions of RAGE” (eLife, 2022)
One block for each molecule: values may come before it.

What was measured:
[1] = target: mouse RAGE VC1 domain triple mutant R216A-R217H-R218A (mouse); experiment: ELISA; methods: 200 ng mRAGE-WT or mRAGE-AHA coated on the plate, 1% BSA block, biotinylated HMGB1 50-1000 ng/ml for 2 hr, streptavidin-HRP; the legend says HMGB1 was immobilised; apparent Kd
[2] = target: T1, mouse RAGE VC1 domain triple mutant R216A-R217H-R218A; experiment: gel filtration (Superdex 200); conditions: chain shown with the change; incubated with HS dodecasaccharide (H12); Superdex 200 (10/300 mm) gel filtration column; parent: est. 13; read off a plot
T1 chain: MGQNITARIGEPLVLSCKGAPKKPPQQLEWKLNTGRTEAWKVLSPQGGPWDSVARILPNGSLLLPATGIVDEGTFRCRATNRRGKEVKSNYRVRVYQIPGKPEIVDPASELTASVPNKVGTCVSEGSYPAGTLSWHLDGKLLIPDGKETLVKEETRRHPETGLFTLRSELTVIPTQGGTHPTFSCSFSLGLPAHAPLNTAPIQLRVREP

[3] = target: T2, high mobility group Box 1 (HMGB1) (UniProt P63158 1-215, biotin (in the HMGB1 binding ELISA of p-0047; immobilised without a stated label in the ELISA of p-0044)); experiment: ELISA; methods: 200 ng mRAGE-WT or mRAGE-AHA coated on the plate, 1% BSA block, biotinylated HMGB1 50-1000 ng/ml for 2 hr, streptavidin-HRP; the legend says HMGB1 was immobilised; apparent Kd; conditions: both partners purified
T2 construct: HMGB1; also called biotinylated HMGB1
T2 sequence (looked up): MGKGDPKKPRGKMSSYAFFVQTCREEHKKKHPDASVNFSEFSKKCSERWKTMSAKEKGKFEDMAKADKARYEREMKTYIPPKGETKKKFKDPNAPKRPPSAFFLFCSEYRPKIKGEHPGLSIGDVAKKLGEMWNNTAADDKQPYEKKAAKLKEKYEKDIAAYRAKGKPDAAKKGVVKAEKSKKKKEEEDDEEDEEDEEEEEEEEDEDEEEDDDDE

Kd [1]: 9.9 nM
Molecule: high mobility group Box 1 (HMGB1) (from UniProt P63158 1-215) (ligand)

other: gel filtration elution volume of main peak in presence of H12 [2]: 14 mL
B1: wild-type mouse RAGE VC1 domain, Q62151 R216A; R217H; R218A (protein)
chain: MGQNITARIGEPLVLSCKGAPKKPPQQLEWKLNTGRTEAWKVLSPQGGPWDSVARILPNGSLLLPATGIVDEGTFRCRATNRRGKEVKSNYRVRVYQIPGKPEIVDPASELTASVPNKVGTCVSEGSYPAGTLSWHLDGKLLIPDGKETLVKEETRRHPETGLFTLRSELTVIPTQGGTHPTFSCSFSLGLPAHAPLNTAPIQLRVREP

Kd [3]: 11.7 nM
B2: wild-type mouse RAGE VC1 domain (domain or fragment, UniProt Q62151 23-231, looked up)
chain: GQNITARIGEPLVLSCKGAPKKPPQQLEWKLNTGRTEAWKVLSPQGGPWDSVARILPNGSLLLPATGIVDEGTFRCRATNRRGKEVKSNYRVRVYQIPGKPEIVDPASELTASVPNKVGTCVSEGSYPAGTLSWHLDGKLLIPDGKETLVKEETRRHPETGLFTLRSELTVIPTQGGTHPTFSCSFSLGLPRRRPLNTAPIQLRVREPG
notes: RAGE (receptor for advanced glycation end-products, Ager), mouse, V and C1 immunoglobulin domains; also called WT-mVC1; mVC1-WT; source: E. coli, purified (HiTrap SP cation exchange, SEC on Superdex 200)
